We go through 3 substances from paper PMC3016346.

Common to all, as to assay: two-hybrid; Matchmaker Gal4 system 3 in AH109; beta-galactosidase solution assay with ONPG on lysed cells from liquid culture; activity as percent of p53-TAg (100%); mean of at least three experiments
Assay [1] concerns the target Sesbania mosaic virus movement protein, Gal4 DNA-binding domain fusion (pGBK T7 MP) (Sesbania mosaic virus).
For assay [2], the target named is SeMV MP NΔ49 deletion mutant, Gal4 DNA-binding domain fusion (pGBKT7 NΔ49) (Sesbania mosaic virus).
Assay [3] addresses SeMV MP CΔ38 deletion mutant, Gal4 DNA-binding domain fusion (pGBK T7) (Sesbania mosaic virus).

The substance “Sesbania mosaic virus coat protein (CP), Gal4 activation domain fusion (pGAD T7 CP) (natural protein)” displayed a beta-galactosidase activity, percent of p53-TAg in assay [1] of 70%.

For “Sesbania mosaic virus 10-kDa protein (P10), Gal4 activation domain fusion (pGAD T7 P10) (natural protein)”, the beta-galactosidase activity, percent of p53-TAg in assay [1] came to 97.1%; in assay [2] it was 14%.

Regarding “Sesbania mosaic virus viral protein genome linked (VPg), Gal4 activation domain fusion (pGAD T7 VPg) (natural protein)”, the beta-galactosidase activity, percent of p53-TAg was found to be 95.5% in assay [1] and 83.1% in assay [3].
